Experimental data reported in publication PMC8639918, “Mechanism of phosphate sensing and signaling revealed by rice SPX1-PHR2 complex structure” (Nature Communications, 2021).
Changes are numbered by the printed parent chain. Numbers in names are those of the source. Where “and” joins values, the source holds several entries; their conditions need not be identical. Identical values can stand only once. One block for each binder: values may come before it.

Assays:
SPX1^1–198 E135A = target: T1, SPX1^1–198 E135A (rice, UniProt Q69XJ0 1-198, E135A); assay: SEC; gel filtration of SPX1^1–198 and PHR2^248–380 and their mutants, buffer C (20 mM Tris/HCl pH 8.0, 200 mM NaCl, 1 mM TCEP) with or without InsP6 as the methods put it; samples incubated at 4 °C for 12 h (Figs. 2c, 5b, Supplementary Fig. 3a–d); conditions: both partners purified
T1 construct: SPX1 (OsSPX1), rice, residues 1-198; not shown: His10, N-terminal, cleaved; MsyB, N-terminal, cleaved
T1 sequence (looked up): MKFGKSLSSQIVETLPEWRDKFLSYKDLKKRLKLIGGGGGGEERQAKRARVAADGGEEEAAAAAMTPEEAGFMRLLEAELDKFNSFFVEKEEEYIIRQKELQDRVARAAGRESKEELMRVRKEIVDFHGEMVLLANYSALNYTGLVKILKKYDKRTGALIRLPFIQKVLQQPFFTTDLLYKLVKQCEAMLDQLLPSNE

SPX1^1–198 Y180A = target: T2, SPX1^1–198 Y180A (rice, UniProt Q69XJ0 1-198, Y180A); assay: as above; conditions: both partners purified
T2 construct: SPX1 (OsSPX1), rice, residues 1-198; not shown: His10, N-terminal, cleaved; MsyB, N-terminal, cleaved
T2 sequence (looked up): T1 sequence (looked up) with A135E, Y180A

SPX1^1–198 = target: T3, SPX1^1–198 (rice, UniProt Q69XJ0 1-198); assay: as above; conditions: both partners purified
T3 construct: SPX1 (OsSPX1), rice, residues 1-198; also called SPX1 (residues 1–198); not shown: His10, N-terminal, cleaved; MsyB, N-terminal, cleaved
T3 sequence (looked up): T1 sequence (looked up) with A135E

[1] = target: the molecule itself; assay: SEC-MALS; Superdex 200 Increase 10/300 GL, buffer C (20 mM Tris/HCl pH 8.0, 200 mM NaCl, 1 mM TCEP) without InsP6, 2–3 mg/ml, 4 °C
[2] = target: T4, SPX1^1–259 (C-terminally truncated fragment of rice SPX1) (rice, UniProt Q69XJ0 1-259); assay: SEC-MALS; Superdex 200 Increase 10/300 GL, buffer C (20 mM Tris/HCl pH 8.0, 200 mM NaCl, 1 mM TCEP) with 1 mM InsP6, 2–3 mg/ml, 4 °C; conditions: both partners purified
T4 construct: also called OsSPX1; not shown: His10, N-terminal, cleaved; MsyB, N-terminal, cleaved
T4 sequence (looked up): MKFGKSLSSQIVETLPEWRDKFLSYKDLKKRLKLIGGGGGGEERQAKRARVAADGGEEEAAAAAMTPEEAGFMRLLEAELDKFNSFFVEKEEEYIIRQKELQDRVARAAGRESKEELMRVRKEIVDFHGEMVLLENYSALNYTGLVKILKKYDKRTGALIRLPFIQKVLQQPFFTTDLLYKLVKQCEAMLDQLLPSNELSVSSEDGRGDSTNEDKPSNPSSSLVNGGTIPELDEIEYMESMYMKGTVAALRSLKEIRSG

[3] = target: T4, SPX1^1–259 (C-terminally truncated …); assay: ITC; PHR2^3M at 120 μM injected into SPX1^1–259 at 10 μM, in presence or absence of 1 mM InsP6; 25 °C; buffer F (20 mM HEPES/NaOH pH 7.5, 200 mM NaCl, 2 mM β-mercaptoethanol); conditions: both partners purified

B1: PHR2^248–380 (domain or fragment)
chain: not shown
notes: PHR2 (OsPHR2), rice, residues 248-380; also called PHR2 (residues 248–380); not shown: His10, N-terminal, cleaved; MsyB, N-terminal, cleaved
binding result (SPX1^1–198 E135A): binds
binding result (SPX1^1–198 Y180A): binds
binding result (SPX1^1–198): binds

B3: PHR2^248–380 E353A (domain or fragment)
chain: not shown
notes: PHR2 (OsPHR2), rice, residues 248-380; not shown: His10, N-terminal, cleaved; MsyB, N-terminal, cleaved
binding result (SPX1^1–198): binds

B5: PHR2^248–380 R248A (domain or fragment)
chain: not shown
notes: PHR2 (OsPHR2), rice, residues 248-380; also called PHR2 R248 mutant; not shown: His10, N-terminal, cleaved; MsyB, N-terminal, cleaved
binding result (SPX1^1–198): binds

B6: PHR2^230–426 (MYB and CC domain-containing fragment of rice PHR2) (domain or fragment)
chain: not shown
notes: Alone in solution a mixture of dimer and tetramer; one copy in the complex with SPX1; not shown: His10, N-terminal, cleaved; MsyB, N-terminal, cleaved
stoichiometry N [1]: 2 and 4
stoichiometry N [2]: 1

B7: PHR2^(230–426 L348A/L358A/I362A) (domain or fragment)
chain: not shown
notes: also called PHR2^3M; PHR2 monomeric mutant; not shown: His10, N-terminal, cleaved; MsyB, N-terminal, cleaved
Kd [3]: ~170 nM

B8: Arabidopsis PHR1^227–358 (MYB and CC domains only) (domain or fragment)
chain: not shown
notes: The methods describe only SPX1 and PHR2 constructs; also called AtPHR1
stoichiometry N [1]: 2

Now from value to binder:

binding result (SPX1^1–198): binds
B2: PHR2^248–380 E257A (domain or fragment)
chain: not shown
notes: PHR2 (OsPHR2), rice, residues 248-380; also called PHR2 E257 mutant; not shown: His10, N-terminal, cleaved; MsyB, N-terminal, cleaved

binding result (SPX1^1–198): binds
B4: PHR2^248–380 E363A (domain or fragment)
chain: not shown
notes: as for B3
